# Reference: patent US6335019B1, “Methods for treating sensitivity to protein allergen using peptides which include a T cell epitope recognized by a T cell receptor specific for the protein allergen” (Immulogic Pharmaceutical Corp., priority 1989, dated 2002)
# Columns and labels:
# [1] = system: goat anti-Amb a I antibody; test: Western blot of E. coli-expressed recombinant Amb a I / Amb a II with goat anti-Amb a I antibody (FIG. 19); assay type: binding
# Procedure: Furthermore, full-length and truncated cDNAs encoding several members of the Amb a I multigene family, as well as Amb a II, were cloned in-frame into the expression vector pTrc99 (Amann et al. Gene, 69:301-315, (1988)) and transformed into the JM109 host. Expression of recombinant Amb a I and Amb a II protein was induced by 1 mM isopropyl-β-D-thiogalactopyranoside, cells were harvested, lysozyme treated, sonicated and insoluble inclusion bodies recovered by a low speed centrifugation. Recombinant Amb a I and Amb a II protein present in the recovered pellet was solubilized in buffer containing 8M urea, 50 mM Tris HC1 pH8.0, 50 mM NaCl, 1 mM EDTA, 1 mM dithiothreitol, 1 mM phenylmethylsulfonyl fluoride. After solubilization, the crude urea lysate was dialyzed at 4° C. against PBS. […] This antigenic cross-reactivity is consistent with the observed sequence homology of the cDNAs (see FIG. 16).
# Isoelectric focusing was done on a Hoeffer gel apparatus with 15 μg of crude soluble pollen protein. The gel consisted of 7.5% acrylamide with 3.5% Pharmalytes pH 4.5-5.3 (Pharmacia) and 3.5% Ampholines pH 3.5-10 (LKB), run at 13W for 3.5 hours until a constant voltage was reached. The gel section was placed on a slab of 10% acrylamide SDS-PAGE and electrophoresed for 3.5 hours at 40 mA according to the protocol cited. The proteins were transferred overnight in phosphate buffer to 0.1 micron nitrocellulose (Schleicher and Schuell) at 0.2A. The blot was rinsed in blot solution (25 mM Tris-CHl pH 7.5, 0.171 M NaCl, 0.05% Tween-20; Sigma). The first antibody incubation was overnight at room temperature with a […] of goat anti-Amb a I IgC (obtained from Dr. David Marsh) in blot solution. The excess first antibody was removed with three 15 minute rinses with blot solution. The second antibody was a 1:2,500 dilution of biotinylated swine anti-goat IgG (Boehringer-Manneheim) in blot solution for two hours. The blot was then rinsed with blot solution three times for 15 minutes and incubated for 1 hr in blot solution with 2 μCi I^125 streptavidin (Amersham). The blots were rinsed with blot solution until the waste wash was down to background. The blot was then exposed to film at —80° C. overnight. In the case of one-dimensional SDS-PAGE Western blots (FIGS. 17, 19 and 20) the isoelectric focusing step was omitted. When human sera was used to probe the Western blots (FIGS. 17 and 20), 10% human plasma in 1% milk in blot solution was incubated overnight with the blot prior to using as second antibody biotinylated goat anti-human IgE.
# [2] = system: rabbit antisera directed against an Amb a II sequence (amino acid 326-338; RAE 50. K); test: Western blot of recombinant proteins with monospecific anti-peptide antisera against RAE 50. K; assay type: binding; settings: Western blots, data not shown
# Excerpt: Proteins or peptides encoded by the cDNA of the present invention can be used, for example, as “purified” allergens. Such purified allergens are useful in the standardization of allergen extracts which are key reagents for the diagnosis and treatment of ragweed allergy. Furthermore, by using peptides based on the sequences listed in FIGS. 2 through 16, anti-peptide antisera or monoclonal antibodies can be made using standard methods. Such reagents can be specifically directed against individual isoforms of Amb a I or Amb a II (i.e., directed against divergent regions/epitopes of the molecule) or can be specific for all forms Amb a I or Amb a II (i.e, directed against common sequences/epitopes). These sera or monoclonal antibodies, directed against Amb a I or Amb a II, can be used to standardize allergen extracts. One such monospecific anti-peptide antisera has already been successfully produced.
# [3] = system: T cells from patients allergic to ragweed; test: T cell proliferation of ragweed allergic patient T cells to ragweed proteins and recombinant lysates (tritiated thymidine); assay type: cell-based, human
# Excerpt: T cells from patients allergic to ragweed, previously stimulated with a mixed ragweed pollen extract, can recognize and proliferate in response to pollen extract, ragweed skin test reagent (RWST), affinity purified Amb a I protein and crude bacterial lysates containing recombinant Amb a I gene products IA, IB and IC (Table 4). […] The use of crude bacterial lysates as antigens precludes a firm conclusion form the negative responses, since the relative levels of recombinant proteins in lysate have not been determined.
# Peripheral blood mononuclear cells (PBMC) were purified from 60 ml of heparinized blood from ragweed-allergic patients. PBMC were subsequently treated as described below, although in individual cases, the length of time of cultivation with IL-2 and IL-4 and the specific ragweed proteins and peptides used for stimulation varied. As an example, ten ml of patient 222 PBMC at 10^6/ml were cultured at 37° C. for 7 days in the presence of 20 micrograms aqueous ragweed pollen extract/ml RPMI-1640 supplemented with 5% pooled human AB serum. Viable cells were purified by Ficoll-Hypaque centrifugation and cultured for three weeks at 5 units recombinant human IL-2/ml and 5 units recombinant human IL-4/ml. The resting T cells were then restimulated (secondary) with 20 micrograms aqueous ragweed pollen extract/ml at a density of 2×10^5 cells/ml in the presence of X-irradiated (3500 RADS) autologous PBMC (5×10^5/ml) for three days, purified by Ficoll-Hypaque centrifugation and grown in 5 units IL-2/ml and 5 units IL-4/ml for two weeks. For assay, 2×10^4 resting secondary T cells were restimulated (tertiary) in the presence of 5×10^4 X-irradiated (3500 RADS) autologous PBMC or 2×10^4 autologous Epstein-Barr virus-transformed B cells (20,000 RADS) with various concentrations of allergen or their fragments in a volume of 200 microliters in 96-well round bottom assay plates for 3 days. Each well then received 1 microCurie tritiated (methyl) thymidine for 16 hours. The counts incorporated were collected onto glass fiber filters and processed for liquid scintillation counting. […] Antigens used: IPC aqueous pollen extract (pollen), Hollister-Stier ragweed skin test extract (RWST), ALK cat epithelium skin test extract (CST), affinity 4B5/B7 antibody purified (dialyzed) Amb a I (B7), and chromatographically purified Amb a I and (Amb a I). Medium only control is shown as a line with no symbol. Alternatively, PBMC were sometimes carried only into a secondary assay (as outlined above for a tertiary assay) with 20 micrograms aqueous pollen extract 7 days, followed by culture in 5 units IL-2/ml and 5 units IL-4/ml for 2-3 weeks. […] Secondary and tertiary assays of a panel of ragweed allergic patients were performed using synthetic peptides derived from the sequences of various ragweed pollen proteins. […] Another four peptides (RAE15.6, RAE3.D, RAE28.1, RAE26.15) which are also derived from the sequence of the same three cDNA's could stimulate 35 to 58% of the patients' T cells. One peptide (RAE4) which is derived from the cDNA of IPC Clone 5 could also stimulate 25% of the patients' T cells. […] By this method it is possible to identify novel therapeutic and diagnostics entities for use in the treatment and the diagnosis of ragweed allergy.
molecule,measurement,setting,value
"Amb a IB: E. coli expressed recombinant Amb a IB, used as crude bacterial lysate (protein) LYFTLALVTLLQPVRSAEDVEEFLPSANETRRSLKACEAHNIIDKCWRCKADWANNRQALADCAQGFAKGTYGGKHGDVYTVTSDKDDDVANPKEGTLRFAAAQNRPLWIIFKRNMVIHLNQELVVNSDKTIDGRGVKVNIVNAGLTLMNVKNIIIHNINIHDIKVCPGGMIKSNDGPPILRQQSDGDAINVAGSSQIWIDHCSLSKASDGLLDITLGSSHVTVSNCKFTQHQFVLLLGADDTHYQDKGMLATVAFNMFTDHVDQRMPRCRFGFFQVVNNNYDRWGTYAIGGSSAPTILSQGNRFFAPDDIIKKNVLARTGTGNAESMSWNWRTDRDLLENGAIFLPSGSDPVLTPEQKAGMIPAEPGEAVLRLTSSAGVLSCHQGAPC",Binding by goat anti-Amb a I antibody (in words),[1],binds specifically
same,Binding by rabbit anti-RAE 50. K antisera (in words),[2],not
same,T cell recognition and proliferation (in words),"[3]; T cells previously stimulated with mixed ragweed pollen extract, summary of Table 4",proliferate
same,Stimulatory response of human T cells (proliferation compared to medium control),[3]; patient 151 2° (secondary assay),+ (2-4 fold)
same,Stimulatory response of human T cells (proliferation compared to medium control),[3]; patient 274 2° (secondary assay),+ (2-4 fold)
same,Stimulatory response of human T cells (proliferation compared to medium control),[3]; patient 295 2° (secondary assay),+ (2-4 fold)
same,Stimulatory response of human T cells (proliferation compared to medium control),[3]; patient 296 2° (secondary assay),+++ (>10 fold)
same,Stimulatory response of human T cells (proliferation compared to medium control),[3]; patient 314 2° (secondary assay),+++ (>10 fold)
same,Stimulatory response of human T cells (proliferation compared to medium control),[3]; patient 316 2° (secondary assay),++ (4-10 fold)
same,Stimulatory response of human T cells (proliferation compared to medium control),[3]; patient 319 2° (secondary assay),(+) (2 fold)
same,Stimulatory response of human T cells (proliferation compared to medium control),[3]; patient 320 2° (secondary assay),+ (2-4 fold)
same,Stimulatory response of human T cells (proliferation compared to medium control),[3]; patient 321 2° (secondary assay),++ (4-10 fold)
